The values below come from patent publication US20240309072A1.

Sequences and labels used below:
B1: REGN10987 (antibody, V domains shown)
VH: QVQLVESGGGVVQPGRSLRLSCAASGFTFSNYAMYWVRQAPGKGLEWVAVISYDGSNKYYADSVKGRFTISRDNSKNTLYLQMNSLRTEDTAVYYCASGSDYGDYLLVYWGQGTLVTVSS
VL: QSALTQPASVSGSPGQSITISCTGTSSDVGGYNYVSWYQQHPGKAPKLMIYDVSKRPSGVSNRFSGSKSGNTASLTISGLQSEDEADYYCNSLTSISTWVFGGGTKLTVL
B2: REGN14315 (antibody, V domains shown)
VH: QVQLVQSGAEVKKPGSSVKVSCKASGDTFSTYAINWVRQAPGQGLEWMGRFIHIFGTANYAQKFQGRVTITADESTSTAYMELRSLRSEDTAVYYCARDGVDYGDYRPDYWGQGTLVTVSS
VL: EIVLTQSPGTLSLSPGERATLSCRASQSVSSNYLAWYQQKPGQAPRLLIYGASSRATGIPERFSGSGSGTDFTLTISRLEPEDFAVYYCQQYGSSLYTFGQGTKLEIK
B3: REGN14315 + REGN10987 (protein)
VH 1: QVQLVQSGAEVKKPGSSVKVSCKASGDTFSTYAINWVRQAPGQGLEWMGRFIHIFGTANYAQKFQGRVTITADESTSTAYMELRSLRSEDTAVYYCARDGVDYGDYRPDYWGQGTLVTVSS
VL 1: EIVLTQSPGTLSLSPGERATLSCRASQSVSSNYLAWYQQKPGQAPRLLIYGASSRATGIPERFSGSGSGTDFTLTISRLEPEDFAVYYCQQYGSSLYTFGQGTKLEIK
VH 2: QVQLVESGGGVVQPGRSLRLSCAASGFTFSNYAMYWVRQAPGKGLEWVAVISYDGSNKYYADSVKGRFTISRDNSKNTLYLQMNSLRTEDTAVYYCASGSDYGDYLLVYWGQGTLVTVSS
VL 2: QSALTQPASVSGSPGQSITISCTGTSSDVGGYNYVSWYQQHPGKAPKLMIYDVSKRPSGVSNRFSGSKSGNTASLTISGLQSEDEADYYCNSLTSISTWVFGGGTKLTVL

The assay has as its target SARS-COV-2 Spike, Omicron variant BA.4 + R346T (BA.4.6) (SARS-COV-2), P0DTC2. The experiment in a line: cell-based or functional assay.
For the molecule B1, the Fold change over R10987 against D614G turned out to be 236 fold and the pseudovirus neutralization IC50 came out at 1.25 nM.
Regarding B2, the Fold change over R10987 against D614G worked out at 255 fold and the pseudovirus neutralization IC50 worked out at 1.35 nM.
In the case of B3, the Fold change over R10987 against D614G was found to be 132 fold and the pseudovirus neutralization IC50 turned out to be 0.698 nM.
